Measured values reported in article PMC3316158.

Experiments:
[1] = target: BRI1 W980 peptide (Arabidopsis); experiment: pull-down
[2] = target: AtCaM6 (Arabidopsis thaliana calmodulin 6), recombinant (Arabidopsis thaliana) (UniProt Q03509); experiment: native gel or EMSA

| retained CaM7 with Ca^2+ relative to without Ca^2+ (densitometry) [1] | stoichiometry N (mol equivalent of peptide per AtCaM6) [2] | Substance |
| --- | --- | --- |
| 2.7 fold | – | His6–AtCaM7 (Arabidopsis thaliana calmodulin 7) (from UniProt P59220 1-149) (natural protein) |
| – | 1 | Peptide representing the CaM-binding domain of mammalian CaMKII (Ca^2+/CaM-dependent protein kinase II) |
